Consider three molecules from patent US20080038248A1 (published 2008).

In general, Kd refers to the concentration at which binding is half-saturated. A word on the koff: it is the rate constant with which the complex falls apart. Broadly, the kon is a measure of how fast the partners come together.

Sequences and labels used below:
B1: soluble recombinant extracellular domain of RAET1G, 6-Histidine N-terminal fusion (ligand, human)
chain: HHHHHHGLADPHSLCYDITVIPKFRPGPRWCAVQGQVDEKTFLHYDCGSKTVTPVSPLGKKLNVTTAWKAQNPVLREVVDILTEQLLDIQLENYIPKEPLTLQARMSCEQKAEGHGSGSWQLSFDGQIFLLFDSENRMWTTVHPGARKMKEKWENDKDMTMSFHYISMGDCTGWLEDFLMGMDSTLEPSAGAPPTMSSGTAQPR
notes: extracellular domain; also called 6-His tagged recombinant RAET1G
B2: UL16 Fc fusion (Fc fusion)
chain: VDLGSKSSNSTCRLNVTELASIHPGETWTLHGMCISICYYENVTEDEIIGVAFTWQHNESVVDLWLYQNDTVIRNFSDITTNILQDGLKMRTVPVTKLYTSRMVTNLTVGRYDCLRCENGTTKIIERLYVRLGSLYPRPPGSGLAKHPSVSADEELSA
notes: not shown: human IgG1 CH2-CH3, C-terminal to UL16 (vector SignalpIgplus)
B3: NKG2D-Fc fusion protein (Fc fusion, human, UniProt P26718 73-216, looked up)
chain: IWSAVFLNSLFNQEVQIPLTESYCGPCPKNWICYKNNCYQFFDESKNWYESQASCMSQNASLLKVYSKEDQDLLKLVKSYHWMGLVHIPTNGSWQWEDGSILSPNLLTIIEMQKGDCALYASSFKGYIENCSTPNTYICMQRTV
notes: Produced in 293T cells, purified on Protein A. 'The fusion was C-terminal to human IgG1 hinge-CH2-CH3 domains'; also called recombinant soluble Fc fusion protein of NKG2D; not shown: human IgG1 hinge-CH2-CH3 domains, N-terminal to NKG2D (in pcDNA3.0)

The assay “NKG2D-Fc fusion protein” has as its target B3. Briefly: SPR (BIACore 2000); RAET1G against ULBP2 on NKG2D-Fc.
Description: (§1) SPR was carried out on a BIACore2000 machine. Running buffer, sensor chips and surface coupling reagents were from BIACore. Anti Human IgG (Dako) was coupled to a CM5 surface using NHS/EDC chemistry. […] Surface regeneration was using 5 μl of 10 mM HCl. […] Kinetic analysis was performed using BIAEvaluation 3.1 software.
The assay “UL16 Fc fusion” deals with B2. Briefly: SPR (BIACore 2000); kon on UL16-Fc against kon on NKG2D-Fc. (In SPR one partner is held on a chip, and binding of the other changes the refractive index at the surface.)
The target of assay [1] is T1, soluble recombinant extracellular domain of RAET1E, 6-Histidine N-terminal fusion (human, UniProt Q8TD07 31-225).
T1 construct: extracellular domain
T1 sequence: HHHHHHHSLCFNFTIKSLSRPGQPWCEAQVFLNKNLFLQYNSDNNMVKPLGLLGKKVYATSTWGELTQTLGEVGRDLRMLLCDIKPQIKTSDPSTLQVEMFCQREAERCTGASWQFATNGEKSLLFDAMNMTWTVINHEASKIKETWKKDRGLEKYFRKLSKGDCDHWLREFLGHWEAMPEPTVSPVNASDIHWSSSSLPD
Briefly: SPR (BIACore 2000), UL16-Fc captured on anti-human IgG, RAET1E as analyte; derived from joint fit.

For assay [2], the target named is T1, soluble recombinant extracellular …. Description: SPR (BIACore 2000), UL16-Fc captured on anti-human IgG, RAET1E as analyte; joint global fit.
For assay [3], the target named is T2, soluble recombinant extracellular domain of ULBP1, 6-Histidine N-terminal fusion (human, UniProt Q9BZM6 26-216, limits assumed).
T2 construct: extracellular domain
T2 sequence: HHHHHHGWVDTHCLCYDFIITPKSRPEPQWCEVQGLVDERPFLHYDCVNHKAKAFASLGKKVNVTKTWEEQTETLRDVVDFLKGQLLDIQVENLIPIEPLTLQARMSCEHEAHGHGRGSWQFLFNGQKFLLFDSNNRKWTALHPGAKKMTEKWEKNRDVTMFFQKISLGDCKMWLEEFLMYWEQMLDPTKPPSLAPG
Description: SPR (BIACore 2000), UL16-Fc captured on anti-human IgG, ULBP1 as analyte; joint global fit.

Assay [4] has as its target T2, soluble recombinant extracellular …. Briefly: SPR (BIACore 2000), UL16-Fc captured on anti-human IgG, ULBP1 as analyte; derived from joint fit.
The target in assay [5] is B1. Briefly: SPR (BIACore 2000), UL16-Fc captured on anti-human IgG, RAET1G as analyte; joint global fit.
Assay [6] deals with B1. Briefly: SPR (BIACore 2000), UL16-Fc captured on anti-human IgG, RAET1G as analyte; derived from joint fit.
Assay [7] concerns the target T2, soluble recombinant extracellular …. Briefly: SPR (BIACore 2000), NKG2D-Fc captured on anti-human IgG, ULBP1 as analyte; joint global fit.
Description: as §1
Assay [8] has as its target T3, soluble recombinant extracellular domain of ULBP2, 6-Histidine N-terminal fusion (human, UniProt Q9BZM5 26-217, limits assumed).
T3 construct: extracellular domain
T3 sequence: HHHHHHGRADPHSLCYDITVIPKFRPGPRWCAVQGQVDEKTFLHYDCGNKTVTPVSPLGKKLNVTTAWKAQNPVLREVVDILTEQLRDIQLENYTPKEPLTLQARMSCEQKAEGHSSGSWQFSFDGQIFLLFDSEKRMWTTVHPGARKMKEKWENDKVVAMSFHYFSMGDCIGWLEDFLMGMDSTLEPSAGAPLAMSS
Briefly: SPR (BIACore 2000), NKG2D-Fc captured on anti-human IgG, ULBP2 as analyte; derived from joint fit.
Description: as §1

Assay [9] concerns the target T2, soluble recombinant extracellular …. Briefly: SPR (BIACore 2000), NKG2D-Fc captured on anti-human IgG, ULBP1 as analyte; separate off-rate fit.
Description: as §1
The target in assay [10] is T1, soluble recombinant extracellular …. Briefly: SPR (BIACore 2000), NKG2D-Fc captured on anti-human IgG, RAET1E as analyte; separate off-rate fit.
Description: as §1
In assay [11] the target is T2, soluble recombinant extracellular …. Briefly: SPR (BIACore 2000), NKG2D-Fc captured on anti-human IgG, ULBP1 as analyte; derived from joint fit.
Description: as §1
Assay [12] concerns the target T4, soluble recombinant extracellular domain of ULBP3, 6-Histidine N-terminal fusion (human, UniProt Q9BZM4 30-217, limits assumed).
T4 construct: extracellular domain
T4 sequence: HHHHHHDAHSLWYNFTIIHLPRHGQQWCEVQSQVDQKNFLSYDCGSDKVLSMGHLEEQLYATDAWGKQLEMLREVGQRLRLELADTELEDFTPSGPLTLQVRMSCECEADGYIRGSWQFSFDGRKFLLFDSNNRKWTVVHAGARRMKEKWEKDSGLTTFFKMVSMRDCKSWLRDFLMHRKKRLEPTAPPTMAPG
Briefly: SPR (BIACore 2000), NKG2D-Fc captured on anti-human IgG, ULBP3 as analyte; joint global fit.
Description: as §1

The target in assay [13] is B1. Description: SPR (BIACore 2000), NKG2D-Fc captured on anti-human IgG, RAET1G as analyte; joint global fit.
Description: as §1
Assay [14] has as its target T3, soluble recombinant extracellular …. Briefly: SPR (BIACore 2000), NKG2D-Fc captured on anti-human IgG, ULBP2 as analyte; separate off-rate fit.
Description: as §1
For assay [15], the target named is T1, soluble recombinant extracellular …. Description: SPR (BIACore 2000), NKG2D-Fc captured on anti-human IgG, RAET1E as analyte; joint global fit.
Description: as §1
In assay [16] the target is T4, soluble recombinant extracellular …. Description: SPR (BIACore 2000), NKG2D-Fc captured on anti-human IgG, ULBP3 as analyte; derived from joint fit.
Description: as §1
The target of assay [17] is T3, soluble recombinant extracellular …. Description: SPR (BIACore 2000), NKG2D-Fc captured on anti-human IgG, ULBP2 as analyte; joint global fit.
Description: as §1
Assay [18] concerns the target T1, soluble recombinant extracellular …. Briefly: SPR (BIACore 2000), NKG2D-Fc captured on anti-human IgG, RAET1E as analyte; derived from joint fit.
Description: as §1
In assay [19] the target is B1. Briefly: SPR (BIACore 2000), NKG2D-Fc captured on anti-human IgG, RAET1G as analyte; derived from joint fit.
Description: as §1
For assay [20], the target named is B1. Briefly: SPR (BIACore 2000), NKG2D-Fc captured on anti-human IgG, RAET1G as analyte; separate off-rate fit.
Description: as §1
The target in assay [21] is T4, soluble recombinant extracellular …. Briefly: SPR (BIACore 2000), NKG2D-Fc captured on anti-human IgG, ULBP3 as analyte; separate off-rate fit.
Description: as §1

For B1, the “fold difference in affinity against ULBP2” value in the assay with NKG2D-Fc fusion protein turned out to be 20 fold. Besides, the “fold faster association rate for UL16 than for NKG2D” value in the assay with UL16 Fc fusion came to 10 fold.
For the molecule B2, the equilibrium dissociation constant (Kd) in assay [1] came out at 504 nM; in assay [4], 243 nM; in [6] it was 75.6 nM. Further, the off-rate (koff) in [2] was found to be 0.00595 s⁻¹; in assay [3], 0.000597 s⁻¹; in assay [5], 0.00871 s⁻¹. Moreover, the values for the kon in assay [2], in [3] and in assay [5] were 11800 M⁻¹ s⁻¹, 2460 M⁻¹ s⁻¹ and 115000 M⁻¹ s⁻¹, respectively.
In the case of B3, the koff was found to be 0.0073 s⁻¹ in assay [7]; 0.0069 s⁻¹ in assay [9]; 0.005 s⁻¹ in assay [10]; 0.00537 s⁻¹ in assay [12]; 0.00374 s⁻¹ in assay [13]; 0.0336 s⁻¹ in assay [14]. Besides, the koff came to 0.00292 s⁻¹ in [15], 0.063 s⁻¹ in assay [17], 0.003 s⁻¹ in [20] and 0.005 s⁻¹ in assay [21]. Moreover, the kon in [7] amounted to 4360 M⁻¹ s⁻¹; in assay [12] it was 2350 M⁻¹ s⁻¹; in [13] it was 10500 M⁻¹ s⁻¹; in [15], 74900 M⁻¹ s⁻¹. The dissociation constant (Kd) in assay [8] came to 7.16 µM; in [11] it was 1680 nM; in assay [16] it was 2290 nM; in [18], 39 nM; in assay [19], 356 nM.
